The values below come from the nanobody polyreactivity screen of Harvey et al. (2022).

This data set can be described thus: yeast display, Sf9 membrane polyspecificity reagent, FACS + sequencing; frameworks hold sequencing errors. Put shortly: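 Genes from sorted yeast were amplified by colony PCR, read by MiSeq 2 × 250 sequencing and filtered on CDR length. These cells carried a synthetic nanobody library in Saccharomyces cerevisiae BJ5465 and were sorted by FACS into low and high (top ~1%) gates on anti-HA and streptavidin fluorescence. Polyreactivity is labelled according to the gate of origin.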
Take “QVQLVESGGGLVQAGGSLRLSCAASGRIFYVYALGWYRQAPGKERELVAAIDWNGGTTYYADSVKGRFTISRDNAKNTVYLQMNSLKPEDTAVYYCAVSLQGYNQVDYYYWGQGTQVTVSS”: the “polyreactivity (PSR sort gate)” value is reported as “high polyreactivity”.
With “QVQLVESGGGLVKAGGSLRISCAASGRIFGYNAMGWYRQAPGKERELVAVISTSGTITYYADSVKGRFTISRDNAKNTVYLQMNSLKPEDTAVYYCAARYYQRANGFGYWGQGTQVTVSS” the entry was “low polyreactivity”; with “QDHLVESGGGLVQAGGTLRLSCAASGRIFVGYAMGWYRQAPGKERELVAGISRSGDSTYYADSVKGRFTISRDNAKNTVYLQMNSLKPEDTAVYYCAASWYKNQTRYYYWGQGTQVTVSS”, “high polyreactivity”.
With “QVQLVESGRGLVQAGGSLRLSCAASGRIFTTDVMGWDRQAPGKERELFAAISARGSTYYADYVKWRFTISRDNAKNTVYLHMNSLKPEDTAVYYFAKKGWSSHERAWYIYDYWGQGTQVTVSS” the entry was “low polyreactivity”; with “QVQLVESGGGLVQAGGSLRLSCAASARTYGNYAMGWYREAPGKERELVADITRRGGSTSYADSVKGRFTISRDNAKNTVYLQMNSLKPEDTAVYYCNKRTTPYYAQGISRLEYDYWGQGTQVTVSS”, “low polyreactivity”.
With “QVQLVESGGGLVQAGGSLRLSCAASGIIFVSYMGWYRQAPGKERELVAAIRWSGGRTYYADSVKGRFTISRDNAKNTVYLQMNSLKPEDTAVYFCAADALRKPKIALYDYWGQGTQVTVSS” the entry was “high polyreactivity”.
For the sequence “QVQLVESGGGLVQAGGSLRLSCAASGRIIVLYAMGWYIQAPGKERELVASIRSGGSTNYADSVKGRFTISRDNAKNTVYLQMNSLKPEDTAVYYCAARIRSVVPFDMDYWGQGTQVTVSS”, the “polyreactivity (PSR sort gate)” value is reported as “low polyreactivity”.
The value for “QVQLVESGGGLVQAGGSLRLSCAASGYPFGYYGKGWYRQAPGKERELVAAISRSGGGSTYYADSVKGRFTISRENAKYTVYLQINSLKPEDTAVYYCNVSPGVWRSIPLYYNLRYGYWGQGTQVTVSS” was “low polyreactivity”.
As for “QVQLVESGGGLVEAGGSLRLSCAASGSTFGSNAMGWYRQGPGKARELVARISKRGGSTYYADSVKGRFTISRDKAKNTVSIQINSLKPDDTAVYYCNVRSWWGYTGPYDYWRQGTQVTVSS”, the “polyreactivity (PSR sort gate)” value was “high polyreactivity”.
The value for “QVQLVESGGGIVQAGGSLRLSCAASGSIFYAYAMGWYRQAPGKERELVASISRGVNTNYADSVKGRFTISRDNAKNTVYLQMNSLKPEDTAVYYCNARLRYGHGYGYWGQGTQVTVSS” was “low polyreactivity”.
The value for “QVQLVESGGGLVQAGGSLRLSCAASGRTFRVYAIGWYRQAPGKEREFVATISVRGGSTYYADSVKGRFTISRDNAKNTVYLQMNSLKPEDTAVYYCAADSYPYVYALYDSWGLGTQVTVSS” was “low polyreactivity”; that for “QVQLVESGGGLVQAGGSLRLSCAASGSIFISYAMGWYRQAPGKERELVAAISRSAGRTYYADSVKGRFTISRDNAKNTVYLQMNSLKPEDTAVYYCAASGYKNGVYTYGYWGQGTQVTVSS” was “high polyreactivity”.
The value for “QVQLVESGGGLVQAGGSLRLSCAASGSTFKLYAMGWYRPAPGKERELVAAISYRGGTTYYADSVKGRFTISRDNAKNSVYLQMNSLKPEDTAVYYCAAGWRPRYLRDASKYDYWGQGTQVTVSS” was “low polyreactivity”; that for “QVQLVESGGGLVQAGGSLRLSCAASGSTFSDNAMGWYRQAPGKERELVAAISSGGSTNYADSVKGRFTISRDNAKNTVYLQMNSLKPEDTAVYYCAREYYSRRYDYWGQGTQVTVSS” was “low polyreactivity”.
For “QVQLVESGGGLVQAGGSLRLSCAASGSIFTENAMGWYRQAPGKERELVAAIRWDDGNTYYADSVKGRFTISRDNAKNTVYLQMNSLKTEDTAVYYCNADKWSSTDDWLYDYWGQGTQVTVSS”, the “polyreactivity (PSR sort gate)” value is “low polyreactivity”.
With “QVQLVESGGGLVQAGGSLRLSCAASGFTFRHYAMGWYRQAPGKARQLVAAITKSGDSTYYADSVKWRFTISRDIAKKTVYLQMNSLNPEDTEVYYCATPYTLSRADNYWGQGTQVTVSS”, the “polyreactivity (PSR sort gate)” value is “low polyreactivity”.
On to “QVQLVESGGGLVQAGGSLRLSCAASGRTFNGYAMGWYRQAPGKERELVAAISSSGSTNYADSVKGRFTISRDNAKNTVYLQMNSLKPEDTAVYYCAAEYYAYESVEYDYWGQGTQVTVSS”, for which the “polyreactivity (PSR sort gate)” value was “low polyreactivity”.
With “QVQLVESGLGLVQAGVSLRLSCAATGLTFVYYAMGWYRPAHGKERELVAAIDWSGGTTYYADSVKGRFTISRDHAKNTVYLQMNSLKPEDTAVYYCAADVVEEDDLEFYYWGQGTQVTVSS” the entry was “high polyreactivity”.
The value for “QVQLVESGGGLVQAGGSLRLSCAASGLTFPYYAMGWYRQAPGKERELVAGISDSGDSTYYADSVKGRFTISRDNAKNTVYLQMNSLKPEDTAVYYCNAYFRYSYDYWGQGTQVTVSS” was “high polyreactivity”; that for “QVQLVQSGGGLVQAVGSLRLSCAASGRTFPYYTMGWYRQARGKERELVAAINSSGGRTYYADSVKGRFTISRDNAKNTVYLQMNSLKPEDTAVYYCAKRGYYKYDWGQGTQVTVSS” was “high polyreactivity”.
With “QVQIVESGGGLVQAGGSHRLSCAATGLTFKYYAMGWYIQAPGKERELVAAISRSGGSTYYADSVKGRFTISRDNAKNTVYLQKNSLKPEDTAVYYCNARAGRYYSVYYPGDYWGQGTQVTVSS” the entry was “high polyreactivity”; with “QVQLGESGGGLVQAGGSLRLSCAASGGIINYYAMGWYRQAPGKEWELVAAITSAGSTYADSVKGRFTISRDNAKNTVYLQMNSLKPDDSAVYYCNAVGFVLKVGYYLIGYAKWYDYWGQGTHVTVSS”, “low polyreactivity”; with “QVQLVESGGGLVQAGGSLRLSCAASGRTFLTNAMGWYRQAPGKERELVAAISSGASTNYADSVKGRFTISRDNAKNTVYLQMNSLKPEDTAVYYCAAQLTDYQSKTLSYDYWGQGTQVTVSS”, “low polyreactivity”.
For the sequence “QVQLVESGGGLVQAGGSLRLSCAASGSIFHYYAMGWYRPAPGKERELVAAISWSGGRTYYADSVKGRFTISRDNAKNTVYLQMNSLKPEDTAVYYCAAARGESYEFYSWGQGTQVTVSS”, the “polyreactivity (PSR sort gate)” value was “high polyreactivity”.
The value for “QVQLVESGGALVQAGGSLRLTSAASGFTFFRNAMRWYRQAPGKERELVAAINWSGGSTYYADSVKGRFTISRDNAKNTVYLQMHSLKPEDTAVYFCAADLSSTESDYWRQGTQVTVSS” was “high polyreactivity”; that for “QVQLVESGGGLVQAGGSLRLSCAASGRTFNLYAMVWSRQAPGKERELVAAISLSGGRTYYADSVKGRITISRDNAKNTVFLQMNRLNPEDTAVYYCNTDTSRRAVQYDYWGQGTQVSVSS” was “high polyreactivity”; that for “QVQLVESGGGLVQAGGSLRLSCDASGSIFILYAMGWYRQAPGKERELVAGITLSTGTTSYADSVKGRFTISRDNAKNTVYLQMNSLKPVDTAVYYCNAVPSQHDEFDYWGQGTQVTVSS” was “low polyreactivity”.
With “QVQLVESGGGLVQAGGSLRLSCAASGSIFVVNAMGWYRQAPGKERELVAAITFSGDSTYYADSVKGRFTISRDNAKNTVYLQMNSLKPEDTAVYYCAAARRSSHWFTYDYWGQGTQVTVSS” the entry was “high polyreactivity”; with “QVQLVESGGGLVQAGGSLRLSCAASGSIFSGNAMGWYRPAPGKERELVAAISSNGGRTYYADSVKGRFTISRDNAKNTVYLQMNSLKPEDTAVYYCAADYGKRRYGYYYWGQGTQVTVSS”, “high polyreactivity”.
The value for “QVQLVESGGGLVQAGGTLRLSCAASGLTFKSYDMGWYRHAPGKERELVAAITSGVSTHYADSVKGRFTISRDNAKNTVYLQMNSLKPEDTAVYYCAADYSWYDPYWIMDYWGQGTQVTVSS” was “low polyreactivity”.
On to “QVQLVESGGGLVQAGGSLRLSCAASGSTIDGYAMAWYRQAPGKERELVAAISRRGGSTYYADSVKGRFTISRDNATNTVYLLMNSLTPEDTAVYYCNRYPPRRYYARYYSWGQGTQVTVSS”, for which the “polyreactivity (PSR sort gate)” value is on record as “high polyreactivity”.
The value for “QVQLVESGGGLVQAGGSLRLSCAASGRPFKRYAMGWYRQAPGKEREVVAAITASGGNTYYADSVKGRFTISRDNAKNTVYLQMNSLKPEDTAVYYCARGSYSGGSKYNYWGQGTQVTVSS” was “high polyreactivity”.
The value for “QVQLVESGGGLVQAGGSLRLSCAASGRTFSAYAMVWYRQAPGKERELVAAISRRGGSTYYADSVKGRFTISRDNAKNTVYLQMKSLKPEDTAVYYCAADVYKQYGYYFWGQGTQVTVSS” was “high polyreactivity”; that for “QVQLVESGGGLVQAGGSLRLSCAASGLTFEVYAMGWYRQAPGKERELVAAISSGGGSTYYADSVKGRFTISRDNGKNTVYLQMNSLKPEDTAVYYCNADALIAAYKYFPYTYRFNYWGQGTQVTVSS” was “low polyreactivity”; that for “QVQLVESGGGLVQAGGSLRLSCAASGSTFRYNAKGWYRQAPGKERELVAAINRGGGTDYADSVKGRFTISRDNAKNTVYLQMNSLKPEDTAVYYCAKQFVSYNRWLAYGYWGQATQVTVSS” was “low polyreactivity”.
With “QVQLVESGGGLVPAGASLRLSCAASGSTSYVYAMGWYRKAPGKERELVAAISGSGGRTYYADSVKGRFTISRDNAKNTVYLQMNSLKPEDTAVYYCNAMPRPSYPFDYWGQGTQVTVSS” the entry was “high polyreactivity”.
“QVQLVESGGGLVQAGGSLRLSCAASGSILASYAMGWYRQAPGKERELVAAINRGGRTKYADSVKGRFTISRDNAKNTVYLQMNSLKPEDTAVYYCAKSDSQYEGDGYWGQGTQVTVSS”: the “polyreactivity (PSR sort gate)” value is reported as “high polyreactivity”.
The value for “QVQLEESGGGLGQAGGSLRLSCAASGSTFTVNGKGWYRQPPGKERELVASITWSGGSTYYADSVKGRFTLSRDNAKYTVYLQMNSLKPEDTAVYYCAADEKLYITGYDYWGQGTQVTVSS” was “low polyreactivity”.
The value for “QVQLVESGGGLVQAGGSLRLSCAASGRTFYEYAMGCYIPAPGKERELVAAITSGGTTYYADSVKGRFTISRDTAKNTVYLQMNSVKPEDTAVYYCAADRYYYYWGQGTQVTVSS” was “high polyreactivity”.
The value for “QVQLVESGGGLVQAGGSLRLSCAASGRLFTGNAMGWYRQAPGKERELVADINRTGGSPYYADSVKGRFTISRDNAKNTVYVQLNSLKPVDTAVYDCAAYVPWGWRYGYNYWGQGTQVTVSS” was “high polyreactivity”; that for “QVQLVESGGGLVQAGGSLRLSCAASGIILGKNAMGWYRQAPGKERELVASITSGAGITYYADSVKGRFTISRDTAKNTVYLQMNSLKPEDTAVYYCNTYPYLWGQGTQVTVSS” was “low polyreactivity”.
